Experimental data as given in patent US20240408183A1, “KYNURENINE AMINOTRANSFERASE AND PRODUCTS THEREOF FOR THE TREATMENT OF INFLAMMATORY BOWEL DISEASES” (Institut National De Recherche Pour L'Agriculture, …, priority 2021, published 2024).

Key:
[1] = tested on: kynurenine (KYNU) and 3-hydroxykynurenin, substrates of AADAT; assay: AADAT activity test (disappearance of kynurenine/3-hydroxykynurenin; production of KYNA and XANA in vitro); format: biochemical; conditions: 15 min, KYNU 1000 μM, FIG. 4F
Experimental: KAT activity may be assessed by any method known by the skilled person. For instance, KAT activity could be assessed as described in the experimental section, i.e. an assay based on the disappearance of kynurenine and/or 3-hydroxykynurenin. Briefly, a reaction mixture (50 μL final volume) containing 10 mM L-kynurenine or 3-hydroxykynurenin, 2 mM α-oxoglutarate, 40 μM PLP (pyridoxal 5′-phosphate) and 0 or 1 μL of the protein to be tested prepared in buffer 100 mM potassium phosphate (pH 7.4), is incubated at 37° C. for 15 min. The reaction is stopped by the addition of an equal volume of 30% acetic acid. The supernatant of the reaction mixture, obtained by centrifugation at 3000 g for 10 min at 4° C., is mixed equally with Ehrlich's solution and incubated 15 min at room temperature to have a colorimetric reaction. In parallel, a standard range of kynurenine or 3-hydroxykynurenin from 0 μM to 1000 μM is made under the same conditions. The amount of kynurenine or 3-hydroxykynurenin present in the sample is measured with a spectrophotometer at an OD of 492 nm and calculated using the standard range. […]
The activity test is based on the disappearance of kynurenine and 3-hydroxykynurenin which are substrates of AADAT. […] The amount of kynurenine or 3-hydroxykynurenin present in the sample was measured with a spectrophotometer at an OD of 492 nm and calculated using the standard range (FIG. 4E).

[2] = tested on: mice submitted to DSS-induced colitis; assay: DSS-induced colitis model in mice; format: in vivo, mouse (C57BL/6JRj); conditions: purified AADAT intraperitoneally
Experimental: C57BL/6JRj from Janvier lab, 7 weeks old, were housed in our specific pathogen free animal facility at IERP (INRA, Jouy en Josas, France). Five to ten female mice per group were used in all experiment, were maintained in a temperature controlled (23° C.) facility with a strict 12 h light/dark cycles and were given free access to food and water. After one acclimation week, we changed water with DSS 2% (MP Biomedical) during 7 days (day 0 to day 7), and a
recovery period was practiced until day 12 (during 5 days). Body weight loss and DAI (disease activity index) were performed daily. After 12 days the samples were harvested.
Colon distal part (cut in three parts) was harvested at day 12 after DSS model and put directly in PFA (Rothi®—Histofix 4%) during 48 h and transferred in ethanol 70% until the standard pre-fixation automat and paraffin embedded. HES coloration was practiced on 5Im cut.
Data were analyzed using Prism version 7 (Graphpad Software, San Diego, USA). The non-parametric Mann Withney test or the parametric one-way ANOVA tests with multiple Bonferroni's comparison tests were performed. Values are expressed as mean±SEM. Statistical significance was defined at a p-value ****<0.0001, ***<0.001, **<0.01, *<0.05.

[3] = 10, 1 and 0.1 μL per day and per mouse

B1: AADAT: recombinant murine Alpha-Aminoadipate AminoTransferase (SEQ ID NO:13) expressed in E. coli and purified by affinity chromatography (protein, listed as Mus musculus)
chain: MNYSRFLTATSLARKPSPIRTTADILSKAPKTLISLAPGSPNPSMFPFKSAAFTVENGSTIRFEDDLIKRALQYSPSYGIPELLSWLKQFQVKLHNPPTVNYPPNQGQMDLCITSGCQDGLCKAFEMLINPGDTILVNEPLFPGTLYAMKPLGCNIINVPSDEHGIIPEGLKKILSQWKPEDSKDPTKKTPKFLYTVPNGNNPTGNSLTGDRKKEIYELARKYDFLIIEDDPYYFLQFSKPWEPTFLSMDVDGRVIRADTFSKTVSSGLRVGFMTGPKTLIQNIVLHTQVSSVHACTLSQLMILQLLHQWGEEGFLAHIDRTIDFYKNQRDSILAAADKWLRGLAEWHVPKAGMFLWIKVKGISDTKQLIEEKAIEREVLLVPGNGFFIDGSAPTSFFRASFSLATPAQMDTAFQRLAQLIKESL
B1 was tested, and the “transformation of KYNU into KYNA and XANA” value [1] was “A dose effect can be observed”, the “protective effect at the two lower doses” value ([2]; 1 and 0.1 μL per day and per mouse) was “protective effect is also seen” and the clinical score [2, 3] was “protection, with a dose effect”. The histological score [2, 3] was “protection, with a dose effect”, the weight loss [2, 3] was “protection, with a dose effect” and the colon length ([2]; 10, 1 and 0.1 μL per day and per mouse, day 12) was “protection, with a dose effect”.
